Article doi:10.1101/157495 (bioRxiv, 2017)

Molecular target: the molecule itself
Experiment: SEC

B1: cyclohexadienyl dehydratase from Pseudomonas aeruginosa (PaCDT) (enzyme, UniProt Q01269 26-268, looked up)
chain: QESRLDRILESGVLRVATTGDYKPFSYRTEEGGYAGFDVDMAQRLAESLGAKLVVVPTSWPNLMRDFADDRFDIAMSGISINLERQRQAYFSIPYLRDGKTPITLCSEEARFQTLEQIDQPGVTAIVNPGGTNEKFARANLKKARILVHPDNVTIFQQIVDGKADLMMTDAIEARLQSRLHPELCAVHPQQPFDFAEKAYLLPRDEAFKRYVDQWLHIAEQSGLLRQRMEHWLEYRWPTAHGK
stoichiometry N: 3
